According to the nanobody polyreactivity screen of Harvey et al. (2022):

Assay: yeast display, Sf9 membrane polyspecificity reagent, FACS + sequencing; frameworks hold sequencing errors
Summary of the method: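 In a synthetic yeast display library (Saccharomyces cerevisiae BJ5465), nanobody expression was induced with galactose for 36–48 hours. FACS gates were set low and high (top ~1%) using anti-HA fluorescence for expression and streptavidin fluorescence for binding of the Sf9 membrane reagent. Each polyreactivity label is drawn from the gate of origin.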

QVQLVESGGGLVQAGGSLRLSCAASVRTFKYYAMGWYRQAPGKERELVASISRGGGSTYYADSVKGRFTISRDNAKNTVYLQMNSLKPDDTAVYYCAAYLRTRYIYCGQGTQVTVSS
polyreactivity (PSR sort gate): high polyreactivity

QVQLVESGGGLVQAGGSLRLSSAASGSNFSRNTMGWYRQAPGKERELVAAITRGGSTDYADSVKGRFTISRDNAKNTVDLQMNSRKPEDTAVYYCAKKNPGWGKFDYWGQGTQVTVSS
polyreactivity (PSR sort gate): low polyreactivity

QVQLVESGGGLVQAGGSLRLSCAASGRIFAQNAMGWYRPAPGKERELVAAISWGGGGTYYADSVKGRFTISRDNAKNTVYLQMNSLKPEDTAVYYCAADSPGFGAWDRYEYWGQGTQVTVSS
polyreactivity (PSR sort gate): low polyreactivity

QVQLVESGGGLVQAGGSLRLSCAASGRTFKFYAMGWYRQAPGKERELVARITSNSGSTYYADSVKGRFTISRDNAKHTVYLQLNSLKPEETAVYYCNARYGYTYRTFRYDYWGQGSQVTVSS
polyreactivity (PSR sort gate): high polyreactivity

QDQLVESGGGLVQAGGSLGLSCAASGIIFYGYAMRWYRPAPGKERELVAAISRSGGSTYYADSVKGRFTISRDNAMNTVYLQMNSLKPEDTAVYYCAASGVTYDYWGQGTQVTVSS
polyreactivity (PSR sort gate): high polyreactivity

QVQLVESGGGLVQAGGSLRISCAASGSIFLKYAMGWYRQAPGKERELVAAITWTDDRTYYADSVKGRFTISRDNAKNTVYLQMNSLKPEDTAVYYCNTATSKSSYRHYDYWGQGTQVTVSS
polyreactivity (PSR sort gate): high polyreactivity

QVQLVESGGGLVQAGGSLRLSCAASGRIFQGYVMGWYRQAPGKERELVAAITTGGSTYYADSVKGRFTISRDNAKNTVYLQMNSLKPEDTAVYYCAAKPTRSRKIYEYWGQGTQVTVSS
polyreactivity (PSR sort gate): low polyreactivity

QVQLVESGGGLVQAGGSLRLSCAASGGTFVPYAMGWYRQAPGKERELVAAITIGGSTSYADSVKGRFTISRDNAKNTVYLQMNSLKPEDTAVYYCNARSYPDYIYWSQRYDYDYWGQGTQVTVSS
polyreactivity (PSR sort gate): low polyreactivity

QVQLVESGGGLVQAGGSLRLSCAASGIILWYNVMGWYRQAPGKERELVASITGDGDDTYYADSVKGRFTMSRDNAKNTVYLQMNSLKPEDTAVYYCAKENYGILYSTLYDYWGQGTQVTVSS
polyreactivity (PSR sort gate): low polyreactivity

QVQLVESGGGLVQAGCSLRLSCAASGSIFVNKAMGWYRQAPGKERELVAAISSRSSRTFYADSVKGRFTISRDNSKNTVYLQMNSLKPEDTAVYYCAARRRLAWGQGTQVTVSS
polyreactivity (PSR sort gate): high polyreactivity

QVQLVESGGGLVQAGGSLRLRGAAAGYNFLRYAIGWYRQAPGTERELVAAITNTGNTNYADSVKGRFTISRDNAKNTVYLQMNSLKPEDTAVYSCAAEYYWYSWKNRYKEYDYWGQGTQVTLSS
polyreactivity (PSR sort gate): low polyreactivity

QVQLVESGGGLVQAGGSLRLSCAASGFNFAFYDMGWYRQAPGKERELVAAISWGGSTYYADSVKGRFTISRDNAKNTVYLQMNRLKPEDTAVYYCAARLSRSYRYGYWGQGTQVTVSS
polyreactivity (PSR sort gate): high polyreactivity

QVQLVESGGGLVQAGGRLRLSCAASGSIFSSYAMGWYRQAPGKERELVAAITNSGVSTYYADSVKGRFTISRDNAKYTVYLQMNSLKPEVTASITALKTVVRLPTVYTPLLNWYYYWGQGTQVTVSS
polyreactivity (PSR sort gate): low polyreactivity

QVQLVESGGGLVQAGGSLRLSCAASGRIFTQYAMGWYRPAPGKERELVAAINASDGSTYADSVKGRFTISRDNAKNTVYLQMNSLKPEDPAVYYCNVTGGPYDFTRWSEFDHWGQGTQVTVSS
polyreactivity (PSR sort gate): low polyreactivity

QVQLVESGGGLVQAGGSLRLSCAASGITFKRYAMGWYRQAPGKEREMVAAITGIGGSTYYADSVKGRFTISRDNAMNTVYLQMNSLKPEDTAVYYCAARNNKKYDYWGQGTQVTVSS
polyreactivity (PSR sort gate): high polyreactivity

EEELVESGGGLVQAGGSLRLSCAASGRTFARNAMGWYRQAPGKERELVAGINFSGGNTYYADSVKGRFTISRDNAKNTVYLQMNSLKPEDTAVYYCAARRYWEGDYWGHGTQVTVSS
polyreactivity (PSR sort gate): low polyreactivity

QVQLVESGGGLLQAGGSLRLSCAASGRTFATYAMGWYRQAPGKERELVAAITSGGSTNYADSVKGRFTISRDNAKNTVYLQMNSLKPEDTAVYYCNAYKTNRGSGPWYTGRYDYWGQGTQVTVSS
polyreactivity (PSR sort gate): low polyreactivity

QVQLVESGGGLVQAGGSLRLSCAASGSTFNRYAMGWYRQAPGKERELVADINSGGRTNYADSVKGRFTISRDNAKNTVYLQMNSLKPEDTAVYFCARRFQYWLSGGQYDYWGQGTQVTVSS
polyreactivity (PSR sort gate): high polyreactivity

QVQLVESGGGLVQAGGSLRLSCAASGKPMGWYRQAPGKERELVAAITYGGTTTYYADSVKGRFTISRDNAKNTVYLQMNSQKPEDTAVYYCAADYVFVATPLRYDYWGQGTQVTVSS
polyreactivity (PSR sort gate): low polyreactivity

QVQLVESGGGLEQAGGSLRLSCAASGGTFARYVMGWYRQAPGKERELVAAITSGGRTYYADSVKGRFTISRDNAKNTVYLQMNSLKPEDTAVYYCATAPRRRATSYYYWGQGTQVTVSS
polyreactivity (PSR sort gate): high polyreactivity

QVQLVESGGGLDQAGGSLRLSCAASGSTFYAYTMGWYRQAPGKERELVARISGRGGSTYYADSVKGRFTISRDNAKNTVFLQMYSLKPEDTAVYFCASRVYGSYRGIQYGYWGQGTQETVSS
polyreactivity (PSR sort gate): high polyreactivity

QVQLVESGGGLVQEGGSLRLSCAASGYIFYEYAMGWYRQAPGKERELVAAISYSGGSTYYADSVKGRFTISRDNAKNTVYLQMNSLKPEDTAVYYCAAVGSVRYREGYDYWGQGSQVTVSS
polyreactivity (PSR sort gate): high polyreactivity

QVQLVESGGGLVQAGGSLRLSCAASGSIFTDNAMGWYRQAPGKERALVAAISWIGDSTDYADSVKGRFTISRDNAKNTVYLQMNSLKPDDTAVYFCAADAKVVSPLYRANDIGMYYWGQGTQVTVSS
polyreactivity (PSR sort gate): low polyreactivity

QVQLVESGGGLVQAGGSLRLSCAASGRTFSYNTMGWYRQAPGTERELVARITWGGGSTNYADSVKGRFTISRDNAKNTFYLQMNSLKPEDTAVYYCAAGPSVPYGPQKVDYWGQGTQVTVSS
polyreactivity (PSR sort gate): low polyreactivity

QVQLVESGGGLVQAGGSLRLSCAASGSIFYHYAMGWYRQAPGKERELVAAISSGGSTSYADSVKGRFTISRDNAKNTVYLQMNSLKPEDTAVYYCNARRIRSRSWKYDYWGQGTQVTVSS
polyreactivity (PSR sort gate): low polyreactivity

QVQLVESGGGLVQAGGSLRLSCAASGSIFSSNAMGWYRQAPGKERELGAAISRSACSTYYADSVKGRFTISRDNAKNTVYLQMNSLKPEDTAVYYCNAVTRLGTYDYWGQGTQVTVSS
polyreactivity (PSR sort gate): high polyreactivity

QVQLVESGGGLVQAGGSLRLSCAASGSILYPYAMGWYRQAPGKERELVAAISSDGSTYYADSVKGRFTISRDNAKNTVYLQMNSLKPEDTAVYYCNADIGPRYDYWGQGTQVTVSS
polyreactivity (PSR sort gate): high polyreactivity

QVQLVESGGGLVQAGGSLRLSCAASGSTFASYAMGWYRQAPGKERELVAAITNGGSTNYADSVKGRFTISRDNAKNTVYLQMNSLKPEDTAVYYCAAYDGFPRRYDYWGQGTQVTVSS
polyreactivity (PSR sort gate): low polyreactivity

QVQLVDSGGGLVQEGGRLRLSCAASGSIYDQYDMGWYRQAPGKERELVAAISNRGGCTYYADSVKGRFTISRDNAKNTVYLQMNSLKPEDTAVYYCAARKYWGYGTRYFYWGQGTQVTVSS
polyreactivity (PSR sort gate): high polyreactivity

QVQLVESGGGLVQAGGSLRLSCAASGNTFSSYAMGWYRQAPGKVRELVAAISRRGGSTYYADSVKRRFTISRDHAKTTVYLQMNSLKPEDTAVYYCAADGTGFRSLRYDYWGQGTQVTVSS
polyreactivity (PSR sort gate): high polyreactivity

QVQLVESGGGLVQAGGSIRLSCAASGSIFGSNAMGWYRQAPGKERELVDAISGSGGSTNYADSVKGRFTISRDNAKNTVYLQMNSLKAEDTAVYYCAVPSKATGSASTSSGIFDSWGQGTQVTVSS
polyreactivity (PSR sort gate): low polyreactivity

QVQLVESGGGLVQAGGTLRLSCAASGRTFDTNAMAWYRQAPGKERELVASITWVGGSTYYADSVKGRFTISRDNAKNTVYLQMNSLKPEDTAVYYCNRDRVSGGKYNYWGQGSQVTVSS
polyreactivity (PSR sort gate): low polyreactivity

QVQLVESGGGLVQAGGSLRLSCAASGRTFKFYAMGWYRQAPGKERELVARITSNSGSTYYADTVKVRYTISRDNAKNTVYLQMNSLKPEDTAVYYCAARGRYRQFNYWGQGTQVTVSS
polyreactivity (PSR sort gate): high polyreactivity

QFQLVESGGGLVHAGGSLRLSCAATGSTLPGYAMGWYRQAPGKERELVAAITSRGGTTYYADSVKGRFTISCDNAKKTVYLQMNSLKPEDTAVYYCAAYTSYASDYWGQGTQVTVSS
polyreactivity (PSR sort gate): high polyreactivity

QVQLVESGGALVQAGGSLRLSCAASGSTFKVYAMGWYRQAPGKERELVAAISFSGGTTYYADSVNGRFTISRDYAKNTVSLQRNSLKPEDTAVFYCAADGSTWYSYYYWGLGTQVTVSS
polyreactivity (PSR sort gate): high polyreactivity

QVHLVESGGGLVQAGGSLRLSSAASGSIFDSNAMGWYRQAPGKERELVAAINSTDITKYADSVKGRFTISRDNAKNTVYLQMNSLKPEDTAVYYCAKDQSLTYSSLWGYDYWGQGTQVTVSS
polyreactivity (PSR sort gate): low polyreactivity

QVQLVESGGGLVQAGGSLRLSCASSGRTFLRYAMGWYRQAPGKERELVAAISSRGGTTHYADSVKGRFTISRDNAKNTVYLPMNSLKPEDTAVYYCAAKSFLPYLKFGYWGQGTQVTVSS
polyreactivity (PSR sort gate): high polyreactivity

QVQLVESGGGLVQAGGSLRLICAASGRTLSGYAMGWYRQAPGKDRELVAVITSGGSTYYADSVKGRFTISRDNAKNTVYLQMNSLKPEDTAVYYCAARGSRLYSSWRGVYWGQGTQVTVSS
polyreactivity (PSR sort gate): high polyreactivity

QVQLVESGGGLVQAGGSLRLTCDASGSSFIFNAMGWSRQAHGIEMELVAGITRRVDSTFYADSVKGRFTISRDNAKNTVYLQMTSLKPEDTGVFFFAARQYSGVKYNYWGQGTEVTVSS
polyreactivity (PSR sort gate): high polyreactivity

QVQLLETGGGLVQAGGSLRLSFAASGSIFYRYSMVWYRQAPGKERELVAAISYSGGSTYYADSVKGRFTISRDNAKNTVYLQMNSLKPEDTAVYYCAKDYPPPISDYSRYYGYGYWGQGTQVTVSS
polyreactivity (PSR sort gate): low polyreactivity

QVQLVESGGGLVQAGGSLRLSCAASGRTFIYYAMGWYRQAPGKERELVATIRGSSTRTYYADSVKGRFTISRDNAKNTVYLQMNSLKPEDTAVYYCAARGTSRKYYYWGQGTQVTVSS
polyreactivity (PSR sort gate): high polyreactivity

QVQLVESGGGLVQAGGSLRLSCAASGRIFGLYAMGWYRQAPGKERELVAGITYSGGTTYYADSVKGRFTISRDNAKNTVYLQMNSLKPEDTAVYYCNKRWYYQYGKYGYWGQGTQVTVSS
polyreactivity (PSR sort gate): high polyreactivity

QVQLVESGGGLVQAGGSLRLSCAASGSIFSTYAMGGYRQAPGKERELVAAIRDSGDRTYYADSVKGRFTISRDNAKNTVYLQMNSLKPDDTAVYYCYARWQEPLKYDYWGQGTPVTVSS
polyreactivity (PSR sort gate): low polyreactivity
